# Source: patent US20050043235A1 (LICENTIA, published 2005)
# T1: neuropilin-1-Ig (UniProt O14786 22-856)
# T1 construct: also called NP1; NP-1; not shown: Ig part of the fusion, not described
# T1 sequence (looked up): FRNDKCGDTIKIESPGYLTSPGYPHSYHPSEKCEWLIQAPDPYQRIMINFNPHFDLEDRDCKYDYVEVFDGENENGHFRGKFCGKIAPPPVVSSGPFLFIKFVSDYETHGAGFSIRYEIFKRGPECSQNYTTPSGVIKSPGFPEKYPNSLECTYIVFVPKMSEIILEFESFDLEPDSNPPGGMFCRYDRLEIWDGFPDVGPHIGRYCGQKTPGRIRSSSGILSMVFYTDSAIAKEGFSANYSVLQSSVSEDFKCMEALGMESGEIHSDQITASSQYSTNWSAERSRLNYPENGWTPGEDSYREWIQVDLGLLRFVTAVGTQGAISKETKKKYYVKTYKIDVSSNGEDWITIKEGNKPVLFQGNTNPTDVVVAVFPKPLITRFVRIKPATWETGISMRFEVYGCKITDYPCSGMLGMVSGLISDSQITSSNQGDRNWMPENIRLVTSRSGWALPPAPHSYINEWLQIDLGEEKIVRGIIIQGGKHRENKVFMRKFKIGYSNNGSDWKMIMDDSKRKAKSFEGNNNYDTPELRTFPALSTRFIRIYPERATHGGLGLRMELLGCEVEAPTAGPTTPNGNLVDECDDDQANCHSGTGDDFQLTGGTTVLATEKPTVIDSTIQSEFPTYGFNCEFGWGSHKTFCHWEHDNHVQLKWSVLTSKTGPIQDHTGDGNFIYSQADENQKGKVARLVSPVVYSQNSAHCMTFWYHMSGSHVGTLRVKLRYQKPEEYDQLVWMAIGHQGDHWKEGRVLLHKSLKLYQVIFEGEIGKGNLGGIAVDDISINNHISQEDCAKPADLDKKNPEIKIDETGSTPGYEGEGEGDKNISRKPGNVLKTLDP
# Tests used:
# [1] = molecular target: T2, VEGFR-1-Ig (UniProt P17948 27-553); assay: precipitation of 35S-labelled protein with VEGFR-1-Ig, SDS-PAGE (FIG. 5B)
# T2 construct: not shown: Ig part of the fusion, not described
# T2 sequence (P17948 27-553): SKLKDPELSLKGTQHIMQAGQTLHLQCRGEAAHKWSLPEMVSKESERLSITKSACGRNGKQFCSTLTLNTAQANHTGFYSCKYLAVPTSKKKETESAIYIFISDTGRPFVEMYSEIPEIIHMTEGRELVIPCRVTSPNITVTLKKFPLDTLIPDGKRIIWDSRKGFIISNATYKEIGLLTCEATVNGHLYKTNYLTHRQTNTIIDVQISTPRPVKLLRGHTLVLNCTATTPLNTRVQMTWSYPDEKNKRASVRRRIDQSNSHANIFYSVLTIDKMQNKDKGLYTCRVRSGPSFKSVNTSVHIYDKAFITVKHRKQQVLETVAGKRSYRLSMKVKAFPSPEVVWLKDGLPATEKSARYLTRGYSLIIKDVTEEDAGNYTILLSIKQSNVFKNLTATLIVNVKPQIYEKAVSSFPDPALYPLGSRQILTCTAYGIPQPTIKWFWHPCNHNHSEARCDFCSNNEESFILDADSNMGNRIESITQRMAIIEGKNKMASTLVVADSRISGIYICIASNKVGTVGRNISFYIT
# [2] = molecular target: T1, neuropilin-1-Ig; assay: precipitation of 35S-labelled protein with neuropilin-1-Ig, SDS-PAGE (FIG. 5A)
Binder,binding result [1],binding result [2]
"CA65, chimeric protein of the VEGF homology domain of VEGF-C and VEGF exon 7-8 encoded sequences (ligand, Exon 7-8 is used here; also called pEBS7/CA65; pREP7/CA65) TEETIKFAAAHYNTEILKSIDNEWRKTQCMPREVCIDVGKEFGVATNTFFKPPCVSVYRCGGCCNSEGLQCMNTSTSYLSKTLFEITVPLSQGPKPVTISFANHTSCRCMSKLDVYRQVHSIIRRPCGPCSERRKHLFVQDPQTCKCSCKNTDSRCKARQLELNERTCRCDKPRR",no binding,–
"VEGF-CΔNΔC (ligand, also called N C; VEGF-C short form) TEETIKFAAAHYNTEILKSIDNEWRKTQCMPREVCIDVGKEFGVATNTFFKPPCVSVYRCGGCCNSEGLQCMNTSTSYLSKTLFEITVPLSQGPKPVTISFANHTSCRCMSKLDVYRQVHSIIRR",no binding,no binding
"CA89, chimeric protein of the VEGF homology domain of VEGF-C and VEGF exon 6-8 encoded sequences (ligand, CA89 is released only with heparin in the medium; also called pEBS7/CA89; pREP7/CA89) TEETIKFAAAHYNTEILKSIDNEWRKTQCMPREVCIDVGKEFGVATNTFFKPPCVSVYRCGGCCNSEGLQCMNTSTSYLSKTLFEITVPLSQGPKPVTISFANHTSCRCMSKLDVYRQVHSIIRRKSVRGKGKGQKRKRKKSRYKSWSVPCGPCSERRKHLFVQDPQTCKCSCKNTDSRCKARQLELNERTCRCDKPRR",no binding,–
